Blank lines part the entries; values can stand above or below the substance they belong to.
Tests used:
[1] = molecular target: fVIIa (Homo sapiens, UniProt P08709); test: Fluorogenic TF assay of relipidated TF with 2 nM fVIIa and D-FPR-(n-butyl)ANSN, compared to the FIG. 2 calibration curve; type: biochemical; settings: 250 pM TF to 500 nM PCPS (75% PC, 25% PS); 2 nM fVIIa; 2 mM CaCl2, pH 7.4; 50 μM D-FPR-(n-butyl)ANSN
Method: Concentrations of TF were varied (0-500 pM) and incubated with 2 nM fVIIa in HBS pH 7.4, containing 2 mM Calcium Chloride (CaCl2), for 10 minutes at room temperature. Next, 50 μM D-FPR-(n-butyl)ANSN was added. Substrate hydrolysis was then monitored continuously for five minutes in a fluorometer at an excitation wavelength of 350 nm and an emission wavelength of 470 nm. The rates of substrate hydrolysis were determined for each TF concentration tested. The rate of hydrolysis by 2 nM fVIIa alone was measured and subtracted from the rates observed in the presence of TF. FIG. 2 is a graph of a calibration line based on these rates of hydrolysis at various TF concentrations.
In this example the preparation for TF employed in Example 3 was relipidated into phospholipid (PCPS) vesicles, composed of 75% phosphatidylcholine (PC) and 25% phosphatidylserine (PS). Relipidated TF, 250 pM TF to 500 nM PCPS, was incubated with 2 nM fVIIa in HBS, 2 mM CaCl2 pH 7.4 for ten minutes at room temperature. Next, 50 μM D-FPR-(n-butyl)ANSN was added. Rates of hydrolysis were determined and the rate of hydrolysis by 2 nM fVIIa alone was measured and subtracted from the rates observed in the presence of TF. The net rate of hydrolysis was then compared to the FIG. 2 calibration curve.

[2] = molecular target: factor VIIa (Homo sapiens, UniProt P08709); test: Fluorogenic TF cofactor activity assay with excess factor VIIa and D-FPR-(n-butyl)ANSN, read against the units/ml standard curve (FIG. 3); type: biochemical
Method: A standardized preparation of recombinant human TF with a cofactor activity of 241 units/ml (specific activity of 3906 units/milligram) was serially diluted to create stock assay standards in the range of 8 to 0.25 units/ml. One hundred microliters of each stock standard was combined with 50 microliters of 120 nM factor VIIa. Subsequently 50 microliters of 150 uM D-FPR-(n-butyl)ANSN was added and the rate of substrate hydrolysis was measured in a fluorometer at an excitation wavelength of 350 nm and an emission wavelength of 470 nm. A standard curve was generated in FIG. 3 by plotting the change in fluorescent intensity over time versus the concentration of TF (in units/ml). In a similar manner, a sample of TF (0.8 mg/ml) with an unknown amount of cofactor activity was assayed for comparison to the standard. After correcting for assay dilution, the unknown sample returned an assay value of 2803 units per milliliter, and thus a specific activity of 3504 units per milligram. Consequently, this allows for comparison of different preparations of TF using their specific activity, which is a direct indication of quality and functionality.

[3] = standardized preparation used as assay standard

factor VIIa, sequence (P08709 61-212 limits assumed): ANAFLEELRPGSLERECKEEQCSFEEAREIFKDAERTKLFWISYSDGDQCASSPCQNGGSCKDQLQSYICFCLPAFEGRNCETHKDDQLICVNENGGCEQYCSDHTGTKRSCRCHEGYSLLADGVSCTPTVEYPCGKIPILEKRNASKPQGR
factor VIIa, sequence (P08709 213-466 limits assumed): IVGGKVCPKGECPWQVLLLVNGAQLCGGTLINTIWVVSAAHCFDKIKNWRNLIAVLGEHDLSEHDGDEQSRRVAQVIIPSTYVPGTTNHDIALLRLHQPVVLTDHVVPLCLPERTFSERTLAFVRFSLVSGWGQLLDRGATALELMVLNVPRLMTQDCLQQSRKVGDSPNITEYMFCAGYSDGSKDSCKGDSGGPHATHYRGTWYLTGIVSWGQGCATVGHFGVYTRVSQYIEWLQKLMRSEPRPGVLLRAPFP
factor VIIa, sequence (P13726 33-295 partner): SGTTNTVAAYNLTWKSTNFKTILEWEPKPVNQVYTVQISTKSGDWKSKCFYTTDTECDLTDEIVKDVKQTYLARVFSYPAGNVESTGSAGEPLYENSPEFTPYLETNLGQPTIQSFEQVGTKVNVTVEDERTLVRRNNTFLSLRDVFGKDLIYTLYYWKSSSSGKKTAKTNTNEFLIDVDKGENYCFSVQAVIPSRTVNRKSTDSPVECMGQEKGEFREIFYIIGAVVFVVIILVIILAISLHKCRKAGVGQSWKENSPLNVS
fVIIa, sequence (P08709 61-212 limits assumed): as the sequence (P08709 61-212 limits assumed) above
fVIIa, sequence (P08709 213-466 limits assumed): as the sequence (P08709 213-466 limits assumed) above
fVIIa, sequence (P13726 33-295 partner): as the sequence (P13726 33-295 partner) above

TF added to the relipidation mixture expressed as functional TF [1]: 35-40%
Substance: Relipidated TF: TF preparation of Example 3 relipidated into PCPS vesicles (75% phosphatidylcholine, 25% phosphatidylserine)

cofactor activity [2, 3]: 241 units/ml
Substance: recombinant human TF: standardized preparation of recombinant human tissue factor used as assay standard
specific activity [2, 3]: 3906 units/milligram

cofactor activity, assay value after correcting for assay dilution ([2]; TF sample 0.8 mg/ml, 120 nM factor VIIa stock, 150 uM D-FPR-(n-butyl)ANSN stock): 2803 units per milliliter
Substance: sample of TF: sample of tissue factor (0.8 mg/ml) with an unknown amount of cofactor activity
specific activity ([2]; TF sample 0.8 mg/ml): 3504 units per milligram

Reference: US7604932B2, “Assay for tissue factor in a sample” (Haematologic Technologies, Inc., priority 2002, dated 2009)
